{"source": "paper PMC9482650", "about": "“Quantitative fragmentomics allow affinity mapping of interactomes” (Nature Communications, 2022)", "assay_in_all_cases": "holdup assay", "design_in_all_cases": "key: below the threshold = too weak to quantify, mostly under pKd 3.1 to 4", "key": {"TJP2_1, Q9UDY2": {"target": "TJP2_1, Q9UDY2", "sequence (Q9UDY2 24-128)": "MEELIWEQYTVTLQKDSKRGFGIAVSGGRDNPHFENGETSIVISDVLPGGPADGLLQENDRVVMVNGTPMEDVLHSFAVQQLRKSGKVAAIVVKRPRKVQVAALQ"}, "MPP6, Q9NZW5": {"target": "T1, MPP6, Q9NZW5", "T1 sequence (Q9NZW5 125-219, limits assumed, looked up)": "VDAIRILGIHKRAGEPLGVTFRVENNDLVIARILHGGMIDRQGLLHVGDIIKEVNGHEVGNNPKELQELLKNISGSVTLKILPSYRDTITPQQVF"}, "DLG1_3, Q12959": {"target": "DLG1_3, Q12959", "sequence (Q12959 457-571)": "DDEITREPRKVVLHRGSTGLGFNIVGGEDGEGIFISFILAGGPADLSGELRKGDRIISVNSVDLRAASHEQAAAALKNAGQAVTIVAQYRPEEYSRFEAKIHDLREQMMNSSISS"}, "MAST1, Q9Y2H9": {"target": "MAST1, Q9Y2H9", "sequence (Q9Y2H9 962-1065)": "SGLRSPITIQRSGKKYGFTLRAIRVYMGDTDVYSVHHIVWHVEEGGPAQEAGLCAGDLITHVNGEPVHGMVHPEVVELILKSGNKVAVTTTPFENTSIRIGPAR"}, "SYNJ2BP, P57105": {"target": "T2, SYNJ2BP, P57105", "T2 sequence (P57105 8-110, limits assumed, looked up)": "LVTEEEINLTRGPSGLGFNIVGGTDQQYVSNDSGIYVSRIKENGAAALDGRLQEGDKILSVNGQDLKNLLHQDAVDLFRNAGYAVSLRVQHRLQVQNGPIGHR"}, "PARD3B_1, Q8TEW8": {"target": "T3, PARD3B_1, Q8TEW8", "T3 sequence (Q8TEW8 196-299, limits assumed, looked up)": "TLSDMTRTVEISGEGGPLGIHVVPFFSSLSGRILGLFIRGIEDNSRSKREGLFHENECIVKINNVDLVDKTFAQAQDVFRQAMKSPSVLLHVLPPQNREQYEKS"}, "APBA3_1, O96018": {"target": "T4, APBA3_1, O96018", "T4 sequence (O96018 389-490, limits assumed, looked up)": "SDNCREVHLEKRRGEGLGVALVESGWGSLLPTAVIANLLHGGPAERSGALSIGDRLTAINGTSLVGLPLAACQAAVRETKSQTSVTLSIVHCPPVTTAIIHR"}, "IL16_4, Q14005": {"target": "IL16_4, Q14005", "sequence (Q14005 1229-1329)": "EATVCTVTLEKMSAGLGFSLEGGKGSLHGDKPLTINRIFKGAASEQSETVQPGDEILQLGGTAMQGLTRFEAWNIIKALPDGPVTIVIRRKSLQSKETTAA"}, "GRASP, Q7Z6J2": {"target": "GRASP, Q7Z6J2", "sequence (Q7Z6J2 96-193)": "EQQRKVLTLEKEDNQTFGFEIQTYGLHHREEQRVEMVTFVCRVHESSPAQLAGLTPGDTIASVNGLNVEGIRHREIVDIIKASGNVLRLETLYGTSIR"}, "PARD3_3, Q8TEW0": {"target": "PARD3_3, Q8TEW0", "sequence (Q8TEW0 582-685)": "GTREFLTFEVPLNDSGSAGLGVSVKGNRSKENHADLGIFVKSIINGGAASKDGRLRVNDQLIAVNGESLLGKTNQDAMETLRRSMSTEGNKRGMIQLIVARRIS"}, "NHERF4_1, Q86UT5-2": {"target": "NHERF4_1, Q86UT5-2", "sequence (Q86UT5 other isoform, or with tags, fused parts or gaps)": "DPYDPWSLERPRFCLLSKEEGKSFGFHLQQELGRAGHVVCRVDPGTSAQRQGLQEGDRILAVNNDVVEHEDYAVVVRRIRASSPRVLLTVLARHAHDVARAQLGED"}, "DLG3_3, Q92796": {"target": "T5, DLG3_3, Q92796", "T5 sequence (Q92796 374-475, limits assumed, looked up)": "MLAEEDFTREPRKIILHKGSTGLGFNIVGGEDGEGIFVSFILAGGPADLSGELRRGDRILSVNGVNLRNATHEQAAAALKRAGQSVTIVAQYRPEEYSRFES"}, "Inadl_2, Q8NI35": {"target": "Inadl_2, Q8NI35", "sequence (Q8NI35 238-335)": "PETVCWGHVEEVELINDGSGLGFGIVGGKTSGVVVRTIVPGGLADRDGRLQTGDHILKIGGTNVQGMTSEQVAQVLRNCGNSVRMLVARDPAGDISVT"}, "RADIL, Q96JH8": {"target": "T6, RADIL, Q96JH8", "T6 sequence (Q96JH8 971-1071, limits assumed, looked up)": "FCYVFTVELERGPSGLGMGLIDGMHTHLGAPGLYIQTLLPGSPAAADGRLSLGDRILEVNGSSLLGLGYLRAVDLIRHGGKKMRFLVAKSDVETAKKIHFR"}, "FRMPD3, Q5JV73": {"target": "FRMPD3, Q5JV73", "sequence (Q5JV73 12-100)": "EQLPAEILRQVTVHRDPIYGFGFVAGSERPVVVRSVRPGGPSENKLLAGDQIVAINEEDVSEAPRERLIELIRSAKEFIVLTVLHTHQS"}, "MPDZ_10, O75970": {"target": "T7, MPDZ_10, O75970", "T7 sequence (O75970 1624-1722, limits assumed, looked up)": "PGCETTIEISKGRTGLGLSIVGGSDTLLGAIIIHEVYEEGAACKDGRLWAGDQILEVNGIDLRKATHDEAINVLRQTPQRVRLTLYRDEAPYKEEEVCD"}, "SNTG2, Q9NY99": {"target": "T8, SNTG2, Q9NY99", "T8 sequence (Q9NY99 68-166, limits assumed, looked up)": "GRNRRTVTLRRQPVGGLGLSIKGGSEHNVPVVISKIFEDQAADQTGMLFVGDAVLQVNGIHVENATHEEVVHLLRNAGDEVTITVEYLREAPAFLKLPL"}, "LRRC7, Q96NW7": {"target": "T9, LRRC7, Q96NW7", "T9 sequence (Q96NW7 1440-1537, limits assumed, looked up)": "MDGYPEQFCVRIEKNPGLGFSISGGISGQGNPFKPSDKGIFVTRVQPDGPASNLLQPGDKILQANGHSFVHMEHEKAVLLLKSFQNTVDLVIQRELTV"}, "DLG4_3, P78352": {"target": "DLG4_3, P78352", "sequence (P78352 306-403)": "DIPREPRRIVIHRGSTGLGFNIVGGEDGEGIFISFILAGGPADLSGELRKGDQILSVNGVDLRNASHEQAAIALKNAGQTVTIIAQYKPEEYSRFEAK"}, "DLG5_1, Q8TDM6": {"target": "DLG5_1, Q8TDM6", "sequence (Q8TDM6 617-713)": "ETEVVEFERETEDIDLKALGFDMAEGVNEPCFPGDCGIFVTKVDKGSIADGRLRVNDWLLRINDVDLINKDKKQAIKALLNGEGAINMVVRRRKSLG"}, "AHNAK1, Q09666": {"target": "AHNAK1, Q09666", "sequence (Q09666 4-100)": "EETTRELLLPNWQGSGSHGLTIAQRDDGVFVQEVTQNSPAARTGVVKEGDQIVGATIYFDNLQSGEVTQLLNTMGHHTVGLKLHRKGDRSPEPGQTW"}, "LIN7B, Q9HAP6": {"target": "T10, LIN7B, Q9HAP6", "T10 sequence (Q9HAP6 88-185, limits assumed, looked up)": "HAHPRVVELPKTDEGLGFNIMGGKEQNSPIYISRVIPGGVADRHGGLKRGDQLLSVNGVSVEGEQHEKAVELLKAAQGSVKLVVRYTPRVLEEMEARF"}, "MAGI1_2, Q96QZ7": {"target": "MAGI1_2, Q96QZ7", "sequence (Q96QZ7 456-580)": "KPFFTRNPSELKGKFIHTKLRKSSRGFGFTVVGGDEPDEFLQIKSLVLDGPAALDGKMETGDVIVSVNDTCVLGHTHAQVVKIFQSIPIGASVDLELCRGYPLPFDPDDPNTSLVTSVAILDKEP"}, "Inadl_9, Q8NI35": {"target": "Inadl_9, Q8NI35", "sequence (Q8NI35 1530-1615)": "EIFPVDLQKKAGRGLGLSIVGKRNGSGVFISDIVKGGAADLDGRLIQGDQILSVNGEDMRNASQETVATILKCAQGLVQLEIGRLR"}, "Inadl_6, Q8NI35": {"target": "Inadl_6, Q8NI35", "sequence (Q8NI35 1058-1167)": "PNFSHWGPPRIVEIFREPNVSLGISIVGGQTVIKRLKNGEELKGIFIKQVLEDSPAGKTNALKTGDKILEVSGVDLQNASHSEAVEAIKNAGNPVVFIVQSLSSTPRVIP"}, "NOS1, P29475": {"target": "NOS1, P29475", "sequence (P29475 9-101)": "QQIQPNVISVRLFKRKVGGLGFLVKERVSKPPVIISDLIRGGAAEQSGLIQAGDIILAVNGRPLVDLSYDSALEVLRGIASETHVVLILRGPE"}, "NHERF2_2, Q15599": {"target": "NHERF2_2, Q15599", "sequence (Q15599 142-238)": "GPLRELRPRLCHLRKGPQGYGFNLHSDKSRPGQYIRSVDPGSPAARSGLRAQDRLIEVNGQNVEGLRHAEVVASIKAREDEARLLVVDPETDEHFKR"}, "SNX27, Q96L92": {"target": "SNX27, Q96L92"}, "[1]": {"conditions": "plain residues with an end cap or a label only (N-terminal biotin on a linker: ahx)"}, "[2]": {"conditions": "plain residues with an end cap or a label only (N-terminal biotin on a linker: ado-ado)"}}}
{"binder": "TQKFRASTAL", "note": "[FRMPD1, Q5SYB0]", "values": [{"measurement": "pKd", "setting": "TJP2_1, Q9UDY2; [1]", "value": "below the threshold"}, {"measurement": "pKd", "setting": "MPP6, Q9NZW5; [1]", "value": "below the threshold"}, {"measurement": "pKd", "setting": "DLG1_3, Q12959; [1]", "value": 3.49}, {"measurement": "pKd", "setting": "MAST1, Q9Y2H9; [1]", "value": 4.44}, {"measurement": "pKd", "setting": "SYNJ2BP, P57105; [1]", "value": 4.26}, {"measurement": "pKd", "setting": "PARD3B_1, Q8TEW8; [1]", "value": "below the threshold"}, {"measurement": "pKd", "setting": "APBA3_1, O96018; [1]", "value": "below the threshold"}, {"measurement": "pKd", "setting": "IL16_4, Q14005; [1]", "value": "below the threshold"}, {"measurement": "pKd", "setting": "GRASP, Q7Z6J2; [1]", "value": 4.56}, {"measurement": "pKd", "setting": "PARD3_3, Q8TEW0; [1]", "value": "below the threshold"}, {"measurement": "pKd", "setting": "NHERF4_1, Q86UT5-2; [1]", "value": 4.47}, {"measurement": "pKd", "setting": "DLG3_3, Q92796; [1]", "value": 3.85}, {"measurement": "pKd", "setting": "Inadl_2, Q8NI35; [1]", "value": "below the threshold"}, {"measurement": "pKd", "setting": "RADIL, Q96JH8; [1]", "value": "below the threshold"}, {"measurement": "pKd", "setting": "FRMPD3, Q5JV73; [1]", "value": "below the threshold"}, {"measurement": "pKd", "setting": "MPDZ_10, O75970; [1]", "value": "below the threshold"}, {"measurement": "pKd", "setting": "SNTG2, Q9NY99; [1]", "value": "below the threshold"}, {"measurement": "pKd", "setting": "LRRC7, Q96NW7; [1]", "value": "below the threshold"}, {"measurement": "pKd", "setting": "DLG4_3, P78352; [1]", "value": 3.78}, {"measurement": "pKd", "setting": "DLG5_1, Q8TDM6; [1]", "value": "below the threshold"}, {"measurement": "pKd", "setting": "AHNAK1, Q09666; [1]", "value": "below the threshold"}, {"measurement": "pKd", "setting": "LIN7B, Q9HAP6; [1]", "value": "below the threshold"}, {"measurement": "pKd", "setting": "MAGI1_2, Q96QZ7; [1]", "value": 4.97}, {"measurement": "pKd", "setting": "Inadl_9, Q8NI35; [1]", "value": "below the threshold"}, {"measurement": "pKd", "setting": "Inadl_6, Q8NI35; [1]", "value": "below the threshold"}, {"measurement": "pKd", "setting": "NOS1, P29475; [1]", "value": 3.72}, {"measurement": "pKd", "setting": "NHERF2_2, Q15599; [1]", "value": 4.03}, {"measurement": "pKd", "setting": "SNX27, Q96L92; [1]", "value": 4.03}]}
{"binder": "NTLNRKTTPV", "note": "[CACNG8, Q8WXS5]", "values": [{"measurement": "pKd", "setting": "TJP2_1, Q9UDY2; [2]", "value": 4.05}, {"measurement": "pKd", "setting": "MPP6, Q9NZW5; [2]", "value": 3.93}, {"measurement": "pKd", "setting": "DLG1_3, Q12959; [2]", "value": 4.33}, {"measurement": "pKd", "setting": "MAST1, Q9Y2H9; [2]", "value": 4.17}, {"measurement": "pKd", "setting": "SYNJ2BP, P57105; [2]", "value": 4.85}, {"measurement": "pKd", "setting": "PARD3B_1, Q8TEW8; [2]", "value": "below the threshold"}, {"measurement": "pKd", "setting": "APBA3_1, O96018; [2]", "value": "below the threshold"}, {"measurement": "pKd", "setting": "IL16_4, Q14005; [2]", "value": 3.59}, {"measurement": "pKd", "setting": "GRASP, Q7Z6J2; [2]", "value": 4.22}, {"measurement": "pKd", "setting": "PARD3_3, Q8TEW0; [2]", "value": "below the threshold"}, {"measurement": "pKd", "setting": "NHERF4_1, Q86UT5-2; [2]", "value": 3.67}, {"measurement": "pKd", "setting": "DLG3_3, Q92796; [2]", "value": 5.08}, {"measurement": "pKd", "setting": "Inadl_2, Q8NI35; [2]", "value": "below the threshold"}, {"measurement": "pKd", "setting": "RADIL, Q96JH8; [2]", "value": "below the threshold"}, {"measurement": "pKd", "setting": "FRMPD3, Q5JV73; [2]", "value": "below the threshold"}, {"measurement": "pKd", "setting": "MPDZ_10, O75970; [2]", "value": 3.84}, {"measurement": "pKd", "setting": "SNTG2, Q9NY99; [2]", "value": 3.75}, {"measurement": "pKd", "setting": "LRRC7, Q96NW7; [2]", "value": "below the threshold"}, {"measurement": "pKd", "setting": "DLG4_3, P78352; [2]", "value": 4.89}, {"measurement": "pKd", "setting": "DLG5_1, Q8TDM6; [2]", "value": "below the threshold"}, {"measurement": "pKd", "setting": "AHNAK1, Q09666; [2]", "value": "below the threshold"}, {"measurement": "pKd", "setting": "LIN7B, Q9HAP6; [2]", "value": "below the threshold"}, {"measurement": "pKd", "setting": "MAGI1_2, Q96QZ7; [2]", "value": 4.64}, {"measurement": "pKd", "setting": "Inadl_9, Q8NI35; [2]", "value": "below the threshold"}, {"measurement": "pKd", "setting": "Inadl_6, Q8NI35; [2]", "value": "below the threshold"}, {"measurement": "pKd", "setting": "NOS1, P29475; [2]", "value": 4.04}, {"measurement": "pKd", "setting": "NHERF2_2, Q15599; [2]", "value": "below the threshold"}, {"measurement": "pKd", "setting": "SNX27, Q96L92; [2]", "value": 4.98}]}
